Test results: the Human Domainome abundance scans (Beltran et al. 2025)
± gives the uncertainty stated by the source.

B1: Ankyrin-2, residues 3571 to 3650; numbered along this chain, Q01484 (parent)
chain: ERLAYIADHLGFSWTELARELDFTEEQIHQIRIENPNSLQDQSHALLKYWLERDGKHATDTNLVECLTKINRMDIVHLME

Variants of: B1
Experiment: abundance fitness (aPCA) (normalised: wild type 0, dead -1); higher = more abundant; growth selection in yeast, the domain comes from the species named
Conditions: Homo sapiens

Q: Which abundance fitness does the source give for ERLAYIADVLGFSWTELARELDFTEEQIHQIRIENPNSLQDQSHALLKYWLERDGKHATDTNLVECLTKINRMDIVHLME here?
A: Its abundance fitness is -0.043 ± 0.38.

Q: Which abundance fitness does the source give for ERLAYRADHLGFSWTELARELDFTEEQIHQIRIENPNSLQDQSHALLKYWLERDGKHATDTNLVECLTKINRMDIVHLME here?
A: The abundance fitness was -0.717 ± 0.26.

Q: Which abundance fitness does the source give for ERLAYNADHLGFSWTELARELDFTEEQIHQIRIENPNSLQDQSHALLKYWLERDGKHATDTNLVECLTKINRMDIVHLME here?
A: The abundance fitness was -0.6 ± 0.24.

Q: Which abundance fitness does the source give for ERLAYPADHLGFSWTELARELDFTEEQIHQIRIENPNSLQDQSHALLKYWLERDGKHATDTNLVECLTKINRMDIVHLME here?
A: The abundance fitness was -0.412 ± 0.16.

Q: For ERLAYKADHLGFSWTELARELDFTEEQIHQIRIENPNSLQDQSHALLKYWLERDGKHATDTNLVECLTKINRMDIVHLME, which abundance fitness is on record?
A: The abundance fitness was -0.807 ± 0.45.

Q: For ERLAYWADHLGFSWTELARELDFTEEQIHQIRIENPNSLQDQSHALLKYWLERDGKHATDTNLVECLTKINRMDIVHLME, which abundance fitness is on record?
A: Its abundance fitness is -0.485 ± 0.22.

Q: Which abundance fitness does the source give for ERLAYSADHLGFSWTELARELDFTEEQIHQIRIENPNSLQDQSHALLKYWLERDGKHATDTNLVECLTKINRMDIVHLME here?
A: The abundance fitness was -0.642 ± 0.23.

Q: Which abundance fitness does the source give for ERLAYVADHLGFSWTELARELDFTEEQIHQIRIENPNSLQDQSHALLKYWLERDGKHATDTNLVECLTKINRMDIVHLME here?
A: The abundance fitness was -0.126 ± 0.46.

Q: Which abundance fitness does the source give for ERLWYIADHLGFSWTELARELDFTEEQIHQIRIENPNSLQDQSHALLKYWLERDGKHATDTNLVECLTKINRMDIVHLME here?
A: Its abundance fitness is -0.11 ± 0.061.

Q: With ERLTYIADHLGFSWTELARELDFTEEQIHQIRIENPNSLQDQSHALLKYWLERDGKHATDTNLVECLTKINRMDIVHLME as the variant, how does the abundance fitness read?
A: The abundance fitness was 0.109 ± 0.048.

Q: For ERLYYIADHLGFSWTELARELDFTEEQIHQIRIENPNSLQDQSHALLKYWLERDGKHATDTNLVECLTKINRMDIVHLME, which abundance fitness is on record?
A: Its abundance fitness is -0.075 ± 0.1.

Q: For ERLAYIATHLGFSWTELARELDFTEEQIHQIRIENPNSLQDQSHALLKYWLERDGKHATDTNLVECLTKINRMDIVHLME, which abundance fitness is on record?
A: The abundance fitness was 0.088 ± 0.21.

Q: With ERLAYIAIHLGFSWTELARELDFTEEQIHQIRIENPNSLQDQSHALLKYWLERDGKHATDTNLVECLTKINRMDIVHLME as the variant, how does the abundance fitness read?
A: Its abundance fitness is -0.237 ± 0.41.

Q: Which abundance fitness does the source give for ERLAYIALHLGFSWTELARELDFTEEQIHQIRIENPNSLQDQSHALLKYWLERDGKHATDTNLVECLTKINRMDIVHLME here?
A: The abundance fitness was 0.052 ± 0.09.

Q: For ERLAYIAGHLGFSWTELARELDFTEEQIHQIRIENPNSLQDQSHALLKYWLERDGKHATDTNLVECLTKINRMDIVHLME, which abundance fitness is on record?
A: The abundance fitness was -0.116 ± 0.12.

Q: Which abundance fitness does the source give for ERLAYIAEHLGFSWTELARELDFTEEQIHQIRIENPNSLQDQSHALLKYWLERDGKHATDTNLVECLTKINRMDIVHLME here?
A: Its abundance fitness is -0.075 ± 0.46.

Q: For ERLAYIAQHLGFSWTELARELDFTEEQIHQIRIENPNSLQDQSHALLKYWLERDGKHATDTNLVECLTKINRMDIVHLME, which abundance fitness is on record?
A: The abundance fitness was 0.234 ± 0.26.

Q: With ERLAYIARHLGFSWTELARELDFTEEQIHQIRIENPNSLQDQSHALLKYWLERDGKHATDTNLVECLTKINRMDIVHLME as the variant, how does the abundance fitness read?
A: The abundance fitness was 0.031 ± 0.11.

Q: For ERLAYIAKHLGFSWTELARELDFTEEQIHQIRIENPNSLQDQSHALLKYWLERDGKHATDTNLVECLTKINRMDIVHLME, which abundance fitness is on record?
A: Its abundance fitness is -0.006 ± 0.17.

Q: With ERLAYIAWHLGFSWTELARELDFTEEQIHQIRIENPNSLQDQSHALLKYWLERDGKHATDTNLVECLTKINRMDIVHLME as the variant, how does the abundance fitness read?
A: The abundance fitness was -0.342 ± 0.39.

Q: For ERLAYIAPHLGFSWTELARELDFTEEQIHQIRIENPNSLQDQSHALLKYWLERDGKHATDTNLVECLTKINRMDIVHLME, which abundance fitness is on record?
A: The abundance fitness was 0.011 ± 0.12.

Q: For ERLAYIASHLGFSWTELARELDFTEEQIHQIRIENPNSLQDQSHALLKYWLERDGKHATDTNLVECLTKINRMDIVHLME, which abundance fitness is on record?
A: Its abundance fitness is 0.051 ± 0.17.

Q: Which abundance fitness does the source give for ERLAYIAAHLGFSWTELARELDFTEEQIHQIRIENPNSLQDQSHALLKYWLERDGKHATDTNLVECLTKINRMDIVHLME here?
A: The abundance fitness was 0.034 ± 0.18.

Q: Which abundance fitness does the source give for ERLAYIAVHLGFSWTELARELDFTEEQIHQIRIENPNSLQDQSHALLKYWLERDGKHATDTNLVECLTKINRMDIVHLME here?
A: The abundance fitness was -0.232 ± 0.11.

Q: Which abundance fitness does the source give for ERLANIADHLGFSWTELARELDFTEEQIHQIRIENPNSLQDQSHALLKYWLERDGKHATDTNLVECLTKINRMDIVHLME here?
A: The abundance fitness was 0.386 ± 0.43.

Q: Which abundance fitness does the source give for ERLACIADHLGFSWTELARELDFTEEQIHQIRIENPNSLQDQSHALLKYWLERDGKHATDTNLVECLTKINRMDIVHLME here?
A: The abundance fitness was 0.137 ± 0.17.

Q: Which abundance fitness does the source give for ERLAGIADHLGFSWTELARELDFTEEQIHQIRIENPNSLQDQSHALLKYWLERDGKHATDTNLVECLTKINRMDIVHLME here?
A: Its abundance fitness is -0.231 ± 0.45.

Q: With ERLARIADHLGFSWTELARELDFTEEQIHQIRIENPNSLQDQSHALLKYWLERDGKHATDTNLVECLTKINRMDIVHLME as the variant, how does the abundance fitness read?
A: The abundance fitness was -0.505 ± 0.32.

Q: For ERLAAIADHLGFSWTELARELDFTEEQIHQIRIENPNSLQDQSHALLKYWLERDGKHATDTNLVECLTKINRMDIVHLME, which abundance fitness is on record?
A: The abundance fitness was 0.066 ± 0.14.

Q: Which abundance fitness does the source give for ERLAPIADHLGFSWTELARELDFTEEQIHQIRIENPNSLQDQSHALLKYWLERDGKHATDTNLVECLTKINRMDIVHLME here?
A: The abundance fitness was -0.019 ± 0.17.

Q: For ERLAHIADHLGFSWTELARELDFTEEQIHQIRIENPNSLQDQSHALLKYWLERDGKHATDTNLVECLTKINRMDIVHLME, which abundance fitness is on record?
A: The abundance fitness was 0.013 ± 0.28.

Q: Which abundance fitness does the source give for ERLAVIADHLGFSWTELARELDFTEEQIHQIRIENPNSLQDQSHALLKYWLERDGKHATDTNLVECLTKINRMDIVHLME here?
A: The abundance fitness was -0.084 ± 0.19.

Q: For ERLAMIADHLGFSWTELARELDFTEEQIHQIRIENPNSLQDQSHALLKYWLERDGKHATDTNLVECLTKINRMDIVHLME, which abundance fitness is on record?
A: Its abundance fitness is -0.559 ± 0.43.

Q: With ERLALIADHLGFSWTELARELDFTEEQIHQIRIENPNSLQDQSHALLKYWLERDGKHATDTNLVECLTKINRMDIVHLME as the variant, how does the abundance fitness read?
A: Its abundance fitness is 0.096 ± 0.29.

Q: For ERLAWIADHLGFSWTELARELDFTEEQIHQIRIENPNSLQDQSHALLKYWLERDGKHATDTNLVECLTKINRMDIVHLME, which abundance fitness is on record?
A: The abundance fitness was -0.143 ± 0.26.
